Where a chain is given by its changes, count along the chain named.

The target in the experiment is T1, monkey LAG-3 on cells (HEK293-cLAG-3 stable cell line) (monkey, UniProt P18627 24-525 (human entry)).
T1 construct: Full-length monkey (Chinese monkey) LAG-3 gene expressed on HEK293 cells
T1 chain: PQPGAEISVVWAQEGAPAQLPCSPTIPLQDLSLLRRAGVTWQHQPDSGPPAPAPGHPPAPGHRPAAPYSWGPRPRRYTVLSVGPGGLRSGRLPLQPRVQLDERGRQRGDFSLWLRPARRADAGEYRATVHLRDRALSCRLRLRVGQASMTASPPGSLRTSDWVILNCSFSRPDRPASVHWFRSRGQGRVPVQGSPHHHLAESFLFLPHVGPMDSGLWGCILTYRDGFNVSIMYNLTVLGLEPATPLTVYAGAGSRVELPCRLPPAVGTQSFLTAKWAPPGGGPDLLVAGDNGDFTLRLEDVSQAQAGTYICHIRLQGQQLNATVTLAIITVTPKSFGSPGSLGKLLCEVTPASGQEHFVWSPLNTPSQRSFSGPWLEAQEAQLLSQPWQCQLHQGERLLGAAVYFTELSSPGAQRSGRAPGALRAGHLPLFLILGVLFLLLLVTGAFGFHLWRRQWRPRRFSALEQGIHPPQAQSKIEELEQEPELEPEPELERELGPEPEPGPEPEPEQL
The experiment is described as follows: FACS, HEK293-cLAG-3, antibody 0.013 nM. The text has this: The pIRES plasmid with the monkey-derived full-length gene was transfected into the HEK293 cell line to construct a HEK293 stable cell line containing monkey LAG-3 (herein referred to as HEK293-cLAG-3 stable cell line). The HEK293-hLAG-3 stable cell line and HEK293-cLAG-3 stable cell line were expanded in a T-75 cell culture flask to a 90% confluence. The medium was aspirated, and the cells were washed with HBSS (Hanks' Balanced Salt Solution) 1-2 times, then treated with a enzyme-free cell dissociation fluid (Versene solution: Life technology) and the cells were collected. The cells were washed with HBSS buffer for 1-2 times. After counted, the cells were diluted with HBSS to 1-2×10⁶ cells per ml, added with 1% goat serum blocking solution, incubated on ice for 20-30 minutes, and then washed with HBSS for 2 times by centrifugation. The collected cells were suspended in the FACS buffer (HBSS+1% BSA) to 2×10⁶ cells/ml, added as 100 microliters per well to a 96-well FACS reaction plate, added with 100 microliters per well of the antibody sample to be tested, incubated on ice for 1-2 hours. The plate was washed twice with the FACS buffer by centrifugation, added with 100 microliters of fluorescent (Alexa 488)-labeled secondary antibodies per well, and incubated on ice for 0.5-1.0 hours. The plate was washed 2-3 times with FACS buffer by centrifugation, added with 100 μl fixative solution (4% Paraformaldehyde) per well to suspend the cells. 5-10 minutes later, it was washed 1-2 times with FACS buffer by centrifugation. The cells were suspended with 100 microliters of FACS buffer, FACS (FACSCalibur, BD) was used for detection and the results were analyzed.

B1: 405B8H3 mouse-human chimeric antibody (antibody, V domains shown)
VH: QVQLQQSGAELVRPGASVTLSCKASGYTFTDYEMHWVKQTPVHGLEWIGATDPETGNSAYNQKFKGKAIMTADKSSSTAYMELRSLTSEDSAVYYCISTGWNDWGQGTSLTVSS
VL: DIKMTQSPSSMYASLGERVTITCKASQDINSYLSWFQQKPGKSPKTLIYRADRLLDGVPSRFSGSGSGQDYSLTISSLEYGDMGIYYCLQYDEFPYTFGGGTKLEIK
notes: also called mAb103-405B8H3
For the molecule B1, the Mean fluorescence intensity is 3.52.

B2: 409B11E12 mouse-human chimeric antibody (antibody, V domains shown)
VH: B1 VH with P41T, G56S, N57Y, M70L, S98A
VL: B1 VL with I2L, D52N, G81E
notes: also called mAb104-409B11E12
For B2, the Mean fluorescence intensity is 3.39.

B3: 409D4E10 mouse-human chimeric antibody (antibody, V domains shown)
VH: B1 VH with Y27N, G56D, S58T, M70L, A72T, S98T, T99S
VL: B1 VL with D52N, G81E, D92N
notes: also called mAb112-409D4E10
B3 showed a Mean fluorescence intensity of 3.36.

The record behind these values is US20210155689A1 (SHANGHAI PHARMAEXPLORER, published 2021).
